According to IntAct's records for PubMed 12912994:

B1: Mitogen-activated protein kinase kinase kinase 2 (Mus musculus), Q61083 (parent)
chain: MDDQQALNSIMQDLAVLHKASRPALSLQETRKAKPSSPKKQNDVRVKFEHRGEKRILQVTRPVKLEDLRSKSKIAFGQSMDLHYTNNELVIPLTTQDDLDKAVELLDRSIHMKSLKILLVVNGSTQATNLEPSPSPEDLNNTPLGAERKKRLSVVGPPNRDRSSPPPGYIPDILHQIARNGSFTSINSEGEFIPESMDQMLDPLSLSSPENSGSGSCPSLDSPLDGESYPKSRMPRAQSYPDNHQEFTDYDNPIFEKFGKGGTYPRRYHVSYHHQEYNDGRKTFPRARRTQGTSFRSPVSFSPTDHSLSTSSGSSVFTPEYDDSRIRRRGSDIDNPTLTVTDISPPSRSPRAPTNWRLGKLLGQGAFGRVYLCYDVDTGRELAVKQVQFNPESPETSKEVNALECEIQLLKNLLHERIVQYYGCLRDPQEKTLSIFMELSPGGSIKDQLKAYGALTENVTRKYTRQILEGVHYLHSNMIVHRDIKGANILRDSTGNIKLGDFGASKRLQTICLSGTGMKSVTGTPYWMSPEVISGEGYGRKADIWSVACTVVEMLTEKPPWAEFEAMAAIFKIATQPTNPKLPPHVSDYTRDFLKRIFVEAKLRPSAEELLRHMFVHYH
partner: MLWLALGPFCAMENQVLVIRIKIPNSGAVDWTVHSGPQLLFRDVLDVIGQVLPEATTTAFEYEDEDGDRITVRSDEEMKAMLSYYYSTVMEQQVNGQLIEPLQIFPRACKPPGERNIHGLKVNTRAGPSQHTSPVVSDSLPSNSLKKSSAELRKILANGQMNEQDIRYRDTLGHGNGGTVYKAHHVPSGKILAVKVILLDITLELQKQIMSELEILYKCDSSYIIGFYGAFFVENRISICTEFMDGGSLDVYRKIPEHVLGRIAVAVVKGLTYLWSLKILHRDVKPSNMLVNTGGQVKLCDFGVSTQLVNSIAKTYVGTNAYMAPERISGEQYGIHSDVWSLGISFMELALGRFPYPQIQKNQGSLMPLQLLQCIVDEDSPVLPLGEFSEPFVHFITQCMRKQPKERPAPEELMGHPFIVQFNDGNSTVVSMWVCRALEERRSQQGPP

Variants of: B1
Settings: with mp2k5_mouse Map2k5, Q9WVS7

Variant	effect of a mutation on the interaction
K47A	decreasing interaction
